Results published in US8383602B2, “Use of TRIM72 as a target for muscle and heart enhancer” (Korea University Industrial & Academic Collaborative …, priority 2007, dated 2013).
Residues, ends and D or L forms follow the SMILES beside them. *: point of attachment. Cbz = O=C(OCc1ccccc1)*

Assays:
Type in all cases: cell-based
[1] = tested on: TRIM72 promoter; assay: TRIM72 promoter-luciferase activity during muscle differentiation, pharmacological inhibitors; conditions: FIG. 14A
Description: (§1) A. CEMI promoter-luciferase fused gene having E2 and E3 was expressed in C2C12 myoblasts for 24 hours and muscle differentiation into myotubes was induced for 24 hours. While inducing muscle differentiation, PI3K inhibitor (LY294002, 10 μM), mTOR inhibitor (rapamycin, 100 nM), GSK3β inhibitor (LiCl, 5 mM) and MAPK inhibitor (PD98059, 10 μM) were treated and luciferase activity was measured. B. CEMI promoter-luciferase fused gene having E2 and E3 and MyoD gene were expressed in C2C12 myoblasts for 24 hours. After treating with various agents for 24 hours, luciferase activity was measured. C. […] After inducing muscle differentiation into myotubes for 24 hours, luciferase activity was measured. […] After inducing differentiation for 24 hours, luciferase activity was measured.
(§2) IRS-1 constructs (full-length, 1-3729; PH-PTB domain, 1-900; Mid-region, 880-2608; Rear-region, 2581-3729) and TRIM72 cDNA constructs (full-length, 1-1431; ΔRING, 181-1431; coiled-coil, 367-1020; CCSPRY, 367-1431; SPRY, 687-1431; Δcoiled-coil) were generated by PCR using the primers described in Table 1 and cloned into pCMV-Tag2B vector and pCMV-3Tag4a vector (Stratagene), respectively. […] Luciferase activity in cell lysates was measured by using the luciferase assay system (Promega) in a Luminoskan Ascent (Thermo Labsystem). […]

[2] = tested on: TRIM72 promoter; assay: MyoD-dependent TRIM72 promoter-luciferase activity in myoblasts, pharmacological inhibitors; conditions: agents treated 24 hours, FIG. 14B
Description: as §1, §2

[3] = tested on: IRS-1; assay: IRS-1 expression in 293 cells co-transfected with TRIM72; conditions: IRS-1 and TRIM72 transfected, FIG. 11A
Description: (§3) A. IRS-1 (6 μg) and TRIM72 (2 μg) were transfected into HEK 293 cells for 30 hours and expression of IRS-1 and TRIM72 was investigated after treating with the proteosomal degradation inhibitor MG132 for 10 hours. B. IRS-1 (3 μg) and TRIM72 at various concentrations (0, 0.5, 1, 2 μg) were transfected into 293 cells for 30 hours and expression of IRS-1 was investigated. C. HA-TRIM72 (or HA-TRIM72 C14A), Flag-IRS-1 and His-ubiquitin were transfected into 293 cells for 30 hours and MG132 was treated for 10 hours. Ubiquitination of IRS-1 was identified by immunoblotting using His after immunoprecipitation with Flag antibody. Red brace denotes ubiquitination of IRS-1.
as §2
(§4) Western blotting and immunostaining were performed as described in Kim, K. B. et al. Proteomics 6, 2444-53 (2006). […] The immunoprecipitates were analyzed by Western blotting.

[4] = tested on: C2C12 myoblasts; assay: Muscle differentiation of C2C12 myoblasts transfected with wild type or mutant TRIM72 genes; conditions: genes expressed in C2C12 myoblasts, differentiation induced, FIG. 10B
Description: (§5) C2C12 cells were purchased from ATCC and grown in Dulbecco's modified Eagle's medium (DMEM) supplemented with 2% penicillin/streptomycin (WelGene) and 10% fetal bovine serum (WelGene) in a 5% CO2 incubator at 37° C. Confluent C2C12 myoblasts were differentiated into myotubes by incubation with DMEM supplemented with the same antibiotics and 2% horse serum. Every 48 hours, the myotubes were fed with fresh DMEM containing 2% horse serum. Male C57BL/Ksj mice were maintained on a controlled lighting schedule, with a 12-h dark period. Twenty-week-old mice were used in all of the experiments in this study.
as §2, with “respectively. Alternatively, TRIM72 and TRIM72 C14A were generated by PCR reaction using the primers described in Table 1 and cloned into pHM6-HA vector, pCMV-Tag2B or pHM6 vector (Roche).” for “respectively.”

[5] = tested on: IRS-1; assay: IRS-1 ubiquitination in 293 cells; conditions: TRIM72, IRS-1 and ubiquitin co-expressed in 293 cells, MG132 treated, FIG. 11C
Description: as §3
293T cells are transfected with pCMV-HA-TRIM72 (1 μg) or pCMV-HA-TRIM72 C14A (1 μg) and pCMV-Flag-IRS-1 (3 μg) and His-ubiquitin (3 μg) using Polyfect (Qiagen). Twenty-four hours after transfection, cells were treated with MG132 (5 μM) for 12 h. Cell lysates were immunoprecipitated with anti-Flag for 2 h. The immunoprecipitates were analyzed by Western blotting against anti-His antibody.

[6] = tested on: C2C12 myoblasts; assay: Muscle differentiation (myogenesis) after TRIM72 overexpression by adenoviral vector or TRIM72 interference by SiRNA
Description: as §5
(§6) An adenoviral vector with TRIM72 was constructed using ViraPower™ Adenoviral Expression System (Invitrogen) under control of the cytomegalovirus (CMV). Full-length-TRIM72 ORF (open reading frame) was cloned into an entry vector pENTR (Invitrogen) using the restriction enzyme sites (SalI and NotI) and homologously recombined into a destination vector pAd/CMV/V5-DEST (Invitrogen) which has the adenoviral genome and CMV promotor. The cloned TRIM72-adenoviral genome was linearlized by cutting with PacI restriction enzyme and transfected into 293A cells using a transfection agent (GenePorter II). After 10-15 days of the transfection, the supernatant comprising adenovirus was re-transfected into 293A cells to obtain the amplified adenovirus. The obtained adenovirus supernatant was purified into adenovirus particles using cessium chlororide. C2C12 myoblasts grown in 6 well plates were infected by adenovirus with the dosage of 4×10^10 VP/ml.
(§7) SiRNA oligomer targeting TRIM72 was designed from Dharmacon. Target sequence of TRIM72 is 5′-[…]-3′. The cell cultures were transfected with control RNAi and TRIM72 specific siRNA using transfection reagent (TransIT®-TKO, Mirus), which was prepared according manufacturer's instruction. Transfected cells were then transferred to media containing 2% horse serum at least for 48 h.
Western blotting and immunostaining were performed as described in Kim, K. B. et al. Proteomics 6, 2444-53 (2006). For immunoprecipitation, cells were lysed in buffer containing 20 mM Tris-HCl pH 7.4, 137 mM NaCl, 1 mM MgCl2, 1 mM CaCl2, 20 mM NaF, 10 mM Na4P2O7, 1% NP-40, 1 mM Na3VO4, 1 mM PMSF and protease inhibitor cocktail (Roche). The whole cell lysates (600 μg protein) were incubated with specific antibodies for 90 min and then with 50 μl of Protein A-sepharose or G-agarose bead (50%) slurry for 1 h. The immunoprecipitates were analyzed by Western blotting.

[7] = tested on: PI3K; assay: IGF-1-induced PI3K activation (PI(3)K activity of anti-p85 immunoprecipitates); conditions: FIG. 7B
Description: as §6
as §7, with “h. […]” for “h.”

[8] = tested on: IRS-1; assay: IGF-I-induced tyrosine phosphorylation of IRS-1 (immunoprecipitation); conditions: IGF-I stimulation, FIG. 8
Description: as §6
(§8) SiRNA oligomer targeting TRIM72 was designed from Dharmacon. Target sequence of TRIM72 is 5′-[…]-3′. The cell cultures were transfected with control RNAi and TRIM72 specific siRNA using transfection reagent (TransIT®-TKO, Mirus), which was prepared according manufacturer's instruction. […]
as §4

[9] = tested on: AKT; assay: IGF-1-induced AKT phosphorylation after TRIM72 overexpression or knockdown; conditions: myoblasts (overexpression) / myotubes (knockdown), FIG. 7A
Description: as §6, §8, §4

[10] = tested on: M-Cadherin; assay: M-Cadherin expression after TRIM72 overexpression or Si-RNA; conditions: FIGS. 12C-12E
Description: as §6, §8, §4

[11] = tested on: IGFR; assay: IGF-I-induced tyrosine phosphorylation of IGFR (immunoprecipitation); conditions: FIG. 8
Description: as §6, §8, §4

[12] = tested on: IRS-1 with PI3K; assay: Molecular association of IRS-1 with PI3K after IGF-I stimulation (immunoprecipitation); conditions: FIG. 8
Description: as §6, §8, §4

[13] = tested on: ERK1/2; assay: IGF-1-induced ERK1/2 phosphorylation after TRIM72 overexpression or knockdown; conditions: myoblasts (overexpression) / myotubes (knockdown), FIG. 7A
Description: as §6, §8, §4

Molecule: O=c1cc(N2CCOCC2)oc2c(-c3ccccc3)cccc12 [LY294002]
- decrease of TRIM72 transcription in IGF-I induced muscle differentiation ([1]; LY294002 10 μM): 4 times

Molecule: [Cl-].[Li+] [LiCl]
- change of TRIM72 transcription in IGF-I induced muscle differentiation ([1]; rapamycin 100 nM, LiCl 5 mM): no change
- MyoD-dependent TRIM72 transcription in myoblasts [2]: not affected

Molecule: CC(C)C[C@@H](C=O)NC(=O)[C@H](CC(C)C)NC(=O)[C@H](CC(C)C)NC(=O)OCc1ccccc1 [MG132, reference compound] (Cbz-Leu-Leu-Leu-aldehyde)
- expression of IRS-1 [3]: expressed normally

B1: C14A TRIM72: TRIM72 mutant protein in which the 14th amino acid is substituted from cystine to alanine (protein, listed as Mus musculus)
chain: MSAAPGLLRQELSAPLCLQLFDAPVTAECGHSFCRACLIRVAGEPAADGTVACPCCQAPTRPQALSTNLQLSRLVEGLAQVPQGHCEEHLDPLSIYCEQDRTLVCGVCASLGSHRGHRLLPAAEAQARLKTQLPQQKMQLQEACMRKEKTVAVLEHQLVEVEETVRQFRGAVGEQLGKMRMFLAALESSLDREAERVRGDAGVALRRELSSLNSYLEQLRQMEKVLEEVADKPQTEFLMKFCLVTSRLQKILSESPPPARLDIQLPVISDDFKFQVWKKMFRALMPALEELTFDPSSAHPSLVVSSSGRRVECSDQKAPPAGEDTRQFDKAVAVVAQQLLSQGEHYWEVEVGDKPRWALGVMAADASRRGRLHAVPSQGLWLLGLRDGKILEAHVEAKEPRALRTPERPPARIGLYLSFADGVLAFYDASNPDVLTPIFSFHERLPGPVYPIFDVCWHDKGKNAQPLLLVGPEQEQA
modifications: or SEQ ID NO 2
notes: TRIM72 mutant protein in which the 14th amino acid is substituted from cystine to alanine
- muscle differentiation [4]: enhanced
- IRS-1 ubiquitination [5]: completely inhibited

B2: TRIM72: TRIM72 protein (SEQ ID NO: 1 or 2) or its gene, overexpressed via adenoviral vector or plasmid; negative regulator of muscle differentiation (protein)
chain: MSAAPGLLHQELSCPLCLQLFDAPVTAECGHSFCRACLGRVAGEPAADGTVLCPCCQAPTRPQALSTNLQLARLVEGLAQVPQGHCEEHLDPLSIYCEQDRALVCGVCASLGSHRGHRLLPAAEAHARLKTQLPQQKLQLQEACMRKEKSVAVLEHQLVEVEETVRQFRGAVGEQLGKMRVFLAALEGSLDCEAERVRGEAGVALRRELGSLNSYLEQLRQMEKVLEEVADKPQTEFLMKYCLVTSRLQKILAESPPPARLDIQLPIISDDFKFQVWRKMFRALMPALEELTFDPSSAHPSLVVSSSGRRVECSEQKAPPAGEDPRQFDKAVAVVAHQQLSEGEHYWEVDVGDKPRWALGVIAAEAPRRGRLHAVPSQGLWLLGLREGKILEAHVEAKEPRALRSPERRPTRIGLYLSFGDGVLSFYDASDADALVPLFAFHERLPRPVYPFFDVCWHDKGKNAQPLLLVGPEGAEA
modifications: left off: small tags and cut ends
notes: negative regulator of muscle differentiation
- myogenesis ([6]; C2C12, FIG. 6A (H&E staining)): prevented
- myogenesis as determined by expression level of myogenesis marker proteins (myogenin, caveolin-3 and MyHC) and nucleus number per myotubes ([6]; C2C12, FIGS. 6C and 6D): completely prevented
- amount of MyHC ([6]; C2C12, MyHC staining, FIG. 6B): decreased
- fusion between cells ([6]; overexpression in myoblasts, FIG. 6): completely inhibits
- IGF-1-induced PI3K activation [7]: abrogated
- expression of IRS-1 [3]: decreased
- tyrosine phosphorylation of IRS-1 [8]: decreased
- muscle differentiation [4]: inhibited
- IGF-1-induced AKT phosphorylation [9]: inhibited
- expression of M-Cadherin [10]: decreased
- tyrosine phosphorylation of IGFR induced by IGF-I [11]: not changed
- IRS-1 ubiquitination [5]: increased
- molecular association of IRS-1 with PI3K after IGF-I stimulation [12]: weakened
- IGF-1-induced ERK1/2 phosphorylation [13]: not changed
